Data taken from patent publication KR20200059381A.

Assays:
[1] = biological target: 구제역 바이러스 혈청형 O 배양액(cal1~cal4) (Foot-and-mouth disease virus serotype O); assay: sandwich ELISA, cal2, 1E58 coat 2 ug/ml, 1E58-HRP 0.6 ug/ml, 450 nm
[2] = biological target: 구제역 바이러스 혈청형 O 배양액(cal1~cal4) (Foot-and-mouth disease virus serotype O); assay: sandwich ELISA, cal2, 1E58 coat 2 ug/ml, 1E58-HRP 0.2 ug/ml, 450 nm
[3] = biological target: 구제역 바이러스 혈청형 O 배양액(cal1~cal4) (Foot-and-mouth disease virus serotype O); assay: sandwich ELISA, cal2, 1E58 coat 8 ug/ml, 1E58-HRP 0.2 ug/ml, 450 nm

B1: 단클론항체 1E58 (antibody, V domains shown)
VH: EFQLQQSRPELAKPGASVKISCKTSGHTFTTYTMHWVKQSHVKSLEWIGCFNPNNGGATYNQKFKGKATLTMDKSSNTAYVEVRSLTSDDSAVYYCAYGNYVNFDYWGQGTTLTVSS
VL: DIVLTQSPASLAVSLGQRATISYRASKSVSTSGYSYMHWNQQKPGQPPRLLIYLVSNLESGVPARFSGSGSGTDFTLNIHPVEEEDAATYYCQHIRELTRSEGGPSWKN
B1 was tested, and the O.D [1] was 3.42 O.D, the O.D [2] was 1.8 O.D and the O.D [3] was 1.24 O.D.
